PMC1931443

Experiments:
DMRT1 (mouse) = DMRT1 (mouse) (UniProt Q9QZ59); test: competition; conditions: 40-fold excess unlabeled SELF; EMSA: 10 mM Tris-HCl pH 7.9, 100 mM KCl, 10% glycerol, 5 mM MgCl2, 1 mM spermidine, 0.075% Triton-X-100, 1 mM DTT, 1 ug BSA, 0.1 ug dI-dC, 75 ng plasmid DNA, 0.
DMRT5 (mouse) = target: T1, DMRT5 (mouse) (UniProt A2A9A2); test: competition; conditions: 40-fold excess unlabeled SELF; EMSA: 10 mM Tris-HCl pH 7.9, 100 mM KCl, 10% glycerol, 5 mM MgCl2, 1 mM spermidine, 0.075% Triton-X-100, 1 mM DTT, 1 ug BSA, 0.1 ug dI-dC, 75 ng plasmid DNA, 0.
T1 sequence: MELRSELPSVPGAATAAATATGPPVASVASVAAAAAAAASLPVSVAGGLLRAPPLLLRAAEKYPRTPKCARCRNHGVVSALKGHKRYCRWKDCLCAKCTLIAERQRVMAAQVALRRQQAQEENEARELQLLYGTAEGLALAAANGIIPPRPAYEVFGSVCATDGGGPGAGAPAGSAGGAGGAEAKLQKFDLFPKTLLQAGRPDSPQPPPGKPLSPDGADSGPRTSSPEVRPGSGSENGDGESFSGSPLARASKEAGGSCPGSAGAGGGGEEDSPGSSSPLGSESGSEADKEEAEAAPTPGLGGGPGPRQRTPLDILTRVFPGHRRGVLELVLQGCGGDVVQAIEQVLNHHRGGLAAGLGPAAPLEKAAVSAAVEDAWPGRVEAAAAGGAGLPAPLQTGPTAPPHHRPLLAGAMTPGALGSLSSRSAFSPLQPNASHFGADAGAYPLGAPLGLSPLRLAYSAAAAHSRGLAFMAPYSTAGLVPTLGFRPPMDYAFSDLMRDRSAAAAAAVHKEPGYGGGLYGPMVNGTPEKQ

DMRT1 (mouse), sequence (Q9QZ59 whole entry): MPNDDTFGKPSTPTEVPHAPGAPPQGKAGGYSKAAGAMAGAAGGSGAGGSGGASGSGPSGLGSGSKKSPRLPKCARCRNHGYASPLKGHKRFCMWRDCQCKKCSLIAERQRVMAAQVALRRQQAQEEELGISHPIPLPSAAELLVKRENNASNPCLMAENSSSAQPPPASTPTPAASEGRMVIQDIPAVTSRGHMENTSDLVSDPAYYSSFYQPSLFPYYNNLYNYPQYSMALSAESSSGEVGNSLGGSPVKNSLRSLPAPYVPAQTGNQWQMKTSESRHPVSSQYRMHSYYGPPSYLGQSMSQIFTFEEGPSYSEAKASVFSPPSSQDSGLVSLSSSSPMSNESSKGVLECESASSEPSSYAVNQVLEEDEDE

Sequence: TCGAGATTTGATACATTGTTGC / TCGAGCAACAATGTATCAAATC [DMRT1 consensus (1RE, general gel shift)]
- binding signal (relative to SELF) (DMRT1 (mouse)): 1
- binding signal (relative to SELF) (DMRT5 (mouse)): 1
